Measurements: FireProtDB (doi:10.1016/j.jmb.2008.02.039)

Conditions: Thermococcus kodakarensis (strain ATCC BAA-918 / JCM 12380 / KOD1); pH 9; 50 °C; GdnHCl; CD; Tris-HCl 20 mM; reversible: Yes; whole UniProt chain shown

B1: Ribonuclease HII wild type, O74035 (protein)
chain: MKIAGIDEAGRGPVIGPMVIAAVVVDENSLPKLEELKVRDSKKLTPKRREKLFNEILGVLDDYVILELPPDVIGSREGTLNEFEVENFAKALNSLKVKPDVIYADAADVDEERFARELGERLNFEAEVVAKHKADDIFPVVSAASILAKVTRDRAVEKLKEEYGEIGSGYPSDPRTRAFLENYYREHGEFPPIVRKGWKTLKKIAEKVESEKKAEERQATLDRYFRKV
  denaturant m value: 5.64 kcal/mol/M
  denaturant midpoint (higher = more stable): 1.85 M
  unfolding free energy: 10.4 kcal/mol
